Test results reported in patent US20110086770A1 (ANAPHORE, published 2011).
Residue numbers refer to the chain shown, from its start. Numbers in names are those of the source.

T1: recombinant human IL-23R/Fc chimera (R&D Systems) (human, UniProt Q5VWK5 24-353)
T1 construct: bought; also called human IL-23R/Fc fusion protein; rhIL23RFc
T1 sequence (looked up): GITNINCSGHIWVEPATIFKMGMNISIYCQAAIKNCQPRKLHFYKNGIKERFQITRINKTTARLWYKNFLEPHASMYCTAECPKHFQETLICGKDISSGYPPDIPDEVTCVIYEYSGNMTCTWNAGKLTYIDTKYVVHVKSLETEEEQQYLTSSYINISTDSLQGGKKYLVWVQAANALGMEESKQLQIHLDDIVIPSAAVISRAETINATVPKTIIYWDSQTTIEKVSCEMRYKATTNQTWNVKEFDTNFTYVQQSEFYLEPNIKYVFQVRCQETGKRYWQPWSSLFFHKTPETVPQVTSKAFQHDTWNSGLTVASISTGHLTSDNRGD

B1: 101-80-5H3 ATRIMER (designed binder)
chain: EPPTQKPKKIVNAKKDVVNTKMFEELKSRLDTLAQEVALLKEQQALQTVCLKGTKVHMKCFLAFTQTKTFHEASEDCISRGGTLSTPQTGSENDALYEYLRQSVGNEAEIWLGLNGSALTNTWVDMTGARIAYKNWEPPAPYHPMAAGVFGENCAVLSGAANGKWFDKRCRDQLPYICQFGIV
modifications: ATRIMER is a homotrimer; one protomer is given.
notes: one residue deleted from Loop 4 (-GVFG); the GlyGly to AlaAla change; not shown: C-terminal purification tag: Myc/His6 (pANA4) or HA-StrepII (pANA10)
B2: 101-51-1A5 ATRIMER (designed binder)
chain: EPPTQKPKKIVNAKKDVVNTKMFEELKSRLDTLAQEVALLKEQQALQTVCLKGTKVHMKCFLAFTQTKTFHEASEDCISRGGTLSTPQTGSENDALYEYLRQSVGNEAEIWLGLNGSALTNTWVDMTGARIAYKNWENGHEPQPRGGFGYFGENCAVLSGAANGKWFDKRCRDQLPYICQFGIV
B3: 105-20-1B3 ATRIMER (designed binder)
chain: B2 chain with N138T, G139E, H140I, E141T, P142A, R145D
notes: not shown: C-terminal tag: Myc/His6 (pANA4) or HA-StrepII (pANA10); A Ser left at the ompA junction may also sit at the N-terminus
B4: 105-20-2C11 ATRIMER (designed binder)
chain: B2 chain with A118V, L119R, N121D, N138T, G139E, H140I, E141T, P142A, R145D, F148W
B5: 105-61-4G3 ATRIMER (designed binder)
chain: B2 chain with A118L, L119R, N121D, N138T, G139E, H140I, E141T, P142A, R145D, Y150V
notes: not shown: C-terminal purification tag: Myc/His6 (pANA4) or HA-StrepII (pANA10)
B6: 105-59-3A5 ATRIMER (designed binder)
chain: B2 chain with A118L, N138T, G139E, H140I, E141T, P142A, R145D, Y150V
notes: as for B3
B7: 105-20-1B4 ATRIMER (designed binder)
chain: B2 chain with A118S, L119R, N138T, G139E, H140I, E141T, P142A, R145D, F148W
modifications: Homotrimer of the given chain (ATRIMER complex).
B8: 105-20-2F12 ATRIMER (designed binder)
chain: B2 chain with A118K, N121D, N138T, G139E, H140I, E141T, P142A, R145D
notes: not shown: C-terminal tag: His/Myc (pANA4) or HA-StrepII (pANA10)
B9: 105-20-2G12 ATRIMER (designed binder)
chain: B2 chain with A118P, L119R, N138T, G139E, H140I, E141T, P142A, R145D
notes: as for B3
B10: 105-08-2H4 ATRIMER (designed binder)
chain: B2 chain with A118V, L119R, N121D, N138T, G139E, H140I, E141T, P142A, R145D
B11: 105-08-2H3 ATRIMER (designed binder)
chain: B2 chain with A118S, N138T, G139E, H140I, E141T, P142A, R145D, F148W
modifications: Homotrimer of the given chain (ATRIMER complex).
B12: 105-08-1A3 ATRIMER (designed binder)
chain: EPPTQKPKKIVNAKKDVVNTKMFEELKSRLDTLAQEVALLKEQQALQTVCLKGTKVHMKCFLAFTQTKTFHEASEDCISRGGTLSTPQTGSENDALYEYLRQSVGNEAEIWLGLNGSPRTDTWVDMTGARIAYKNWETEITAQPDGGWGVFGENCAVLSGAANGKWFDKRCRDQLPYICQFGIV
notes: as for B3
B13: 105-20-2A3 ATRIMER (designed binder)
chain: B12 chain with R119I, D121N, W148F, V150Y
notes: as for B3
B14: 105-08-2H12 ATRIMER (designed binder)
chain: B12 chain with D121E, W148F, V150Y
modifications: Homotrimer of the given chain (ATRIMER complex).
B15: 105-20-2C4a ATRIMER (designed binder)
chain: B12 chain with P118A, R119K, V150Y
notes: as for B8
B16: 105-78-2E6 ATRIMER (designed binder)
chain: B12 chain with P118L, D121N, W148F
notes: as for B5
B17: 105-20-1H1 ATRIMER (designed binder)
chain: B12 chain with R119L, D121N, V150Y
B18: 101-113-6C102 ATRIMER (designed binder)
chain: EPPTQKPKKIVNAKKDVVNTKMFEELKSRLDTLAQEVALLKEQQALQTVCLKGTKVHMKCFLAFTQTKTFHEASEDCISRGGTLSTPQTGSENDALYEYLRQSVGNEAEIWLGLNGSNVTQTWVDMTGARIAYKNWEPPPPHHPQGGFGVFGENCAVLSGAANGKWFDKRCRDQLPYICQFGIV
modifications: ATRIMER is a homotrimer; one protomer is given.
notes: as for B5
B19: 105-61-4G5 ATRIMER (designed binder)
chain: B12 chain with R119L, D121N, W148F
notes: as for B3
B20: 105-20-2C7 ATRIMER (designed binder)
chain: B12 chain with P118V, R119T, W148F, V150Y
B21: 105-20-2G5 ATRIMER (designed binder)
chain: B12 chain with P118R, V150Y
notes: as for B8
B22: 105-20-1H7 ATRIMER (designed binder)
chain: B12 chain with P118A, R119G, D121N, W148F, V150Y
B23: 105-20-1A6 ATRIMER (designed binder)
chain: B12 chain with P118A, R119K, D121G, V150Y
notes: as for B8
B24: 105-20-2C4b ATRIMER (designed binder)
chain: B12 chain with P118V, R119K, V150Y
modifications: Forms a homotrimer (ATRIMER) through the tetranectin coiled coil; one protomer is given.
notes: not shown: C-terminal tag
B25: 105-59-3B5 ATRIMER (designed binder)
chain: B12 chain with R119I, W148F
notes: as for B5
B26: 105-20-2F10 ATRIMER (designed binder)
chain: B12 chain with P118A, W148F, V150Y
modifications: Forms a homotrimer (ATRIMER) through the tetranectin coiled coil; one protomer is given.
notes: not shown: C-terminal tag
B27: 101-54-4B10 ATRIMER (designed binder)
chain: B2 chain with N138R, G139P, H140P, E141L, P142Y, R145G
modifications: ATRIMER is a homotrimer; one protomer is given.
notes: as for B5
B28: 105-08-2H6 ATRIMER (designed binder)
chain: B12 chain with R119V, D121G, W148F, V150Y
B29: 105-08-2H11 ATRIMER (designed binder)
chain: B12 chain with V150Y
B30: 105-08-2H10 ATRIMER (designed binder)
chain: B12 chain with P118N, R119H, W148F, V150Y
notes: as for B8
B31: 101-51-1A9 ATRIMER (designed binder)
chain: B2 chain with N138P, G139A, H140R, E141Q, R145G
modifications: ATRIMER is a homotrimer; one protomer is given.
notes: as for B5
B32: 105-78-2D1 ATRIMER (designed binder)
chain: B12 chain with P118L, D121H, W148F
notes: as for B3
B33: B9B ATRIMER (designed binder)
chain: B12 chain with G116A, S117P, R119D, T120L, D121G, T122L, F151W
modifications: Forms a homotrimer through the tetranectin coiled coil; one protomer is given.
notes: also called 056-41.B9B
B34: A4A ATRIMER (designed binder)
chain: EPPTQKPKKIVNAKKDVVNTKMFEELKSRLDTLAQEVALLKEQQALQTVCLKGTKVHMKCFLAFTQTKTFHEASEDCISRGGTLSTPQTGSENDALYEYLRQSVGNEAEIWLGLNWTLAKNLWVDMTGARIAYKNWETEITAQPDGGLFGRGENCAVLSGAANGKWFDKRCRDQLPYICQFGIV
modifications: Forms a homotrimer through the tetranectin coiled coil; one protomer is given.
notes: also called 001-87.A4A
B35: C3C ATRIMER (designed binder)
chain: B12 chain with G116A, S117N, P118R, T120R, D121T, T122M, W148M, F151W
modifications: Forms a homotrimer through the tetranectin coiled coil; one protomer is given.
notes: also called 001-89.C3C

The binders below were run against T1, recombinant human IL-23R/Fc chimera … (assay: competition ELISA against IL-23).
Description: Assays were performed generally as follows. Individual wells in Immulon HB2 plates were incubated overnight at 4° C. with 100 μL PBS containing 100 ng of an anti-human IgG Fc (R&D MAB 110 clone 97924). Plates were washed five times with PBS/0.05% Tween 20, and wells were incubated for 1.5 h at RT with 100 μL each of PBS containing 50 ng of recombinant human IL-23R/Fc. […] Competitor was included at a final concentration of 1 μg/mL. After incubation, plates were washed as described and wells were incubated for 40 min at RT with 100 μL each of PBS containing a 1:5000 dilution of streptavidin-HRP conjugate (Pierce catalog no. 21130). After washing, wells were incubated with 100 μL each of TMB (BioFX Lab catalog no. TMBH-1000-0) for up to 30 min at RT. Reactions were stopped with an equal volume of 0.2 M sulfuric acid.

Binder	Ratio IC50 to 056-53.H4E IC50 [ratio]
B1	11.3
B2	1
B3	1.2
B4	4.8
B5	0.8
B6	1.2
B7	3
B8	2.8
B9	1
B10	5
B11	2.9
B12	1.1
B13	1.2
B14	3.3
B15	2.9
B16	1

Binder	Ratio IC50 to 056-53.H4E IC50 [ratio]
B17	1.8
B18	2
B19	1
B20	3.5
B21	5.3
B22	2.1
B23	6.6
B24	4.2
B25	0.8
B26	4.2
B27	1.4
B28	2
B29	4.3
B30	6.5
B31	2.2
B32	1.3

These binders were tested against T1, recombinant human IL-23R/Fc chimera … (assay: SPR (Biacore), captured IL-23R/Fc, ATRIMER).
Description: A Biacore 3000 biosensor (GE Healthcare) was used to evaluate the interaction of human IL-23R and receptor binders. Immobilization of an anti-human IgG Fc antibody (GE Heathcare) to the CM5 chip (Biacore) was performed using standard amine coupling chemistry, and this modified surface was used to capture a recombinant human IL-23R/Fc fusion protein (R&D Systems). A low-density receptor surface, less than 200 RU, was used for all of the analyses. ATRIMER™ polypeptide complex dilutions (1-500 nM) were injected over the IL-23R surface at 30 μl/min and kinetic constants were derived from the sensorgram data using the Biaevaluation software (version 3.1, GE Healthcare). Data collection was 3 minutes for the association and 5 minutes for dissociation. The anti-human IgG surface was regenerated with a 30 s pulse of 3M magnesium chloride. All sensorgrams were double-referenced against an activated and blocked flow-cell as well as buffer injections.

Binder	Ka [M⁻¹]	Kd [nM]	koff [s⁻¹]	kon [M⁻¹ s⁻¹]
B1	1.55e+08	6.46	0.000327	50500
B2	1.71e+09	0.584	0.000289	495000
B8	5.41e+08	1.85	0.000471	254000
B12	2.11e+09	0.473	0.000348	735000
B13	1.32e+09	0.759	0.000312	412000
B18	9.62e+08	1.04	0.000283	271000
B27	1.11e+09	0.897	0.000429	479000
B33	1.94e+08	5.15	0.000478	92800
B31	1.05e+09	0.955	0.000329	345000
B34	1.24e+08	8.08	0.000409	50600
B35	1.2e+08	8.34	0.000483	57900
